assay: soluble on expression in E. coli; label from the status in PepcDB or PDB records

| Sequence | soluble on expression in E. coli |
| --- | --- |
| MVYLKGQIRKALSGFYYVYADGETYQTRARGNFRNRKITPLVGDEVLFESDNLTDGYVLEILPRRNELVRPPVANVDLGVVVMSMVSPNFSFNLLDRFLVSLEYKDIEPVIYLTKVDLLDEPQRQQVTEIKQIYEALGYAVIASEDVEATKELERFFPERLTVFMGQSGAGKSTLLNQISPELQLATAEISQSLGRGKHTTRHVELIPLYDGLVADTPGFSAIDFLEMEAVELPKQFPEFVAAASHCKFRECMHHKEPGCEVKRQVEAGTIATSRYENYLQFLMEIENRRPVYKKKS | not soluble |
| MAIAYFIPDQAQLLARSYQQNGQQTAASPRTTATAAAPSQQQQQSQQQQQQQRHHHQQQRPQFRANISVPLGSQQGSMTMSEFGCWDLLAQIFCYALRIYSYSSSQRQPTVIQISFEISSGGQNNDEDDVTDATSKEN | not soluble |
| MGGSHHHHHHGMASAVNVYSTSVTSDNLSRHDMLAWINESLQLNLTKIEQLCSGAAYCQFMDMLFPGSIALKKVKFQAKLEHEYIQNFKILQAGFKRMGVDKIIPVDKLVKGKFQDNFEFVQWFKKFFDANYDGKDYDPVAARQGQETAVAPSLVAPALNKPKKPLTSSSAAPQRPISTQRTAAAPKAGPGVVRKNPGVGNGDDEAAELMQQVNVLKLTVEDLEKERDFYFGKLRNIELICQENEGENDPVLQRIVDILYATDEGFVIPDEGGPQEEQEEY | not soluble |
| MGSDKIHHHHHHMLELLEPIAIFTHVARAGSFSAAARRLGISKSKVSTQVADLEHRLGVQLIQRTTRSLSLTEAGHLLYLQGEELLRDAEQAIASVHNLNDATRGVLKVGISQSFGVMHIIPALPSFMAKHPELELQVSLLDHKVDVVSEGLDLLLTMSEQLPLGMVARPLMKCQFLLVASPGYIAQHGEPTRPEQLVDHNCLVYQGEWHEHSMWQFKKGDDYCEIGVSGNFRVDNAPALKSAAISGLGVVYLASYLMEDEITKGTLVPLLKDWQLTHHLPLQAVYPRRKHLAPKVSSFIEFIKDHIGTPPYWDAPYVELFSKRQ | not soluble |
| VEPVPDTHLRGITCLDHENEKVNMYCVSDDQLICALCKLVGRHRDHQVASLNDRFEKLKQTLEMNLTNLVK | soluble |
| MKFLFIVQGEGRGHLTQAITLEEILRRNGHEVVEVLVGKSSSRRLPGFFNRNIHAPVKRFVSPNFLPTPANKRVSLMRSVAYNLVKLPVYINSINYIRQRIEASGADRVINFYELLTGLTYFLFRPSVPQICIGHQYLFLHKSFEFPKADKVSLALLKFFTVLTSLGAKERLALSFRHMKDDPQNHIRVIPPLLRREVTLHEPYSGDYIHGYMVNAGFSENVMKWHRQHPGIPLRFFWDKWEEEPVKRVDNTLSFYQLDDVEFLRQMAGCKAYASTAGFESVCEAMYLGKPILMVPAHIEQDCNAYDAEKSGAGIISSDFNLQQLLEFAKDYHPNRDFVYWVRGAEYTLLNLLESDSSNYQQVLFNEMYLVEEFI | not soluble |
| MEYNPFHNGHLYHLTSARELVKPDYTIAVMSGNFCQRGEPAVIDKFARAEIALRMGVDVVLELPVVFATQDAGGFAFGAVCVLDATGVVTDVVFGSESNDIEFLQRVARILYEQPDEYQKFLHEELKKGYSFPNARKYALMRYFSMKGWNEEEVLKLEKSNDILGVEYIHSALKIGSNIRFHTIKRVGAEEKDTSFRGRFSSATAIRNLMREKRWEEVRDSLPEDSFEILMREINEGRGPVFLENMGDFLLSFFRLKNMDFFEKIHGFSEGLEKRFHVCARQTGSYRDFLECVKAKRFTFSRIRRLALFSVFEVNKEFVEKSNTKGPQYIRILGFTEKGREILSLMRKKAKLPIVTNMSLYRKVLEKTDLPVDKQLFLEQIDLDVKATNFYSMFFPSVEQRCGERDFSIHPIFLRTEM | not soluble |
| MQLTIKNKDLNTLYRVLDKIKITNMRANRGRAKLLAKVVDKINEYAKDETDLIDMYAAKDKDDKFVIDEHKNIKLADPAKLDELNDLLNELADEEIVIKGGEYSKRFIDFLNFLEECEDEFTSSEIILIDNILEQFEESKKGE | not soluble |
| MKLLSTYRLQPMKFSEIRNRLDYFVELGVTHLYLSPVLKARPGSTHGYDVVDYNTINDELGGEEEYIRLIDEAKSKGLGIIQDIVPNHMAVHHTNWRLMDVLKKGRHSRYYNYFDFYEEEEKIRIPILGDRNFKITYVNDEPYLDYYGNLFPINDEGRNYLNDIEKLLKVQYYELVDWRDYPSYRRFFAVNELIAVRQELEWVFEDSHSKILSFEVDGYRIDHIDGLFKPEEYLRRLKNKIGNKHIFVEKILSIGEKLRWDFIDGTTGYDFLNYSNLLFTDNEDKMTEIYKNILDIDLDELVKETKKKIIDTLFKHDIERISMMLGVNYEEIKEFLSCLKVYRTYITENDFRDEEIIRNCSQKVYESMKKNVTAFMKLQQYMPAVFAKAYEDTVLFIYNRLISLNEVGSDLHYYSISCDKFHEFNLKRVGTLSFNATSTHDTKFSEDVRMRISAISEIPDEWAKKVNEWHNILNPNIDKNDEYRLYQTIVGSFDGFNNEYKERLKAHMIKALREAKVHTDWVNVNTEYEKKMTYLIDKMFNNEKFMESFLEFESKIDKMGKVKSLSLVALKITSPGVADFYQGLENFRYLLTDPDNRRPVVFSELPKRYEEGLFNNGRIKAYVTKVLLNLRKSMKDFFINSEYKPLKLQKGLCGFMRGDKVLVIVKTLNRDYDIEIDGEYTDVITDETVRGRVKVDKLPLILVK | soluble |
| MTSSTGTRRLTAKGRATRDRIVAAAAQLMYERGVTGTSTEDILKAARVASPSQLYHYFGDKRGLVQAVIEHQTEQVLGFQKPLLSRLDSIEALEAWRDAVVEAQHARDCQGGCPLGSLASELSDLDPQARARLVAGYEQWGNAIREGLRSMRERGELDGGADPDRLALALLTALQGGLLMTQTRRDTIALEAVLNTMIDHIRFRTTP | soluble |
| SKVALITGVTGQDGSYLAEFLLEKGYEVHGIKRRASSFNTERVDHIYQDPHTCNPKFHLHYGDLSDTSNLTRILREVQPDEVYNLGAMSHVAVSFESPEYTADVDAMGTLRLLEAIRFLGLEKKTRFYQASTSELYGLVQEIPQKETTPFYPRSPYAVAKLYAYWITVNYRESYGMYACNGILFNHESPRRGETFVTRKITRAIANIAQGLESCLYLGNMDSLRDWGHAKDYVKMQWMMLQQEQPEDFVIATGVQYSVRQFVEMAAAQLGIKLRFEGTGVEEKGIVVSVTGHDAPGVKPGDVIIAVDPRYFRPAEVETLLGDPTKAHEKLGWKPEITLREMVSEMVANDLEAAKKHSLLKSHGYDVAIALES | soluble |
| MVTPFPEVSEWLCIGQIVGAHGLRGEVKVKPFSDFPERFTVPGCRWLRSPRQPQPYAVTLLRGRFLPRAEQFVVTFAEISDRTAAEALKGAEILVPASDRPPLAANEYHLMDLIGLAVYHQGERVGEVVGLVNAGNDLLEVQLLDPAPKAPQSVYIPFVPAIVPVVDLAARRIEIDPPLGLLPLEHHHHHH | not soluble |
| SLTITVLQGGNVLDLERGVLLEHHHVVIDGERIVEVTDRPVDLPNAQAIDVRGKTVMPGFIDCHVHVLASNANLGVNATQPNILAAIRSLPILDAMLSRGFTSVRDAGGADWSLMQAVETGLVSGPRIFPSGKALSQTGGHGDFRPRGDLLEPCSCCFRTGAIARVVDGVEGVRLAVREEIQKGATQIKIMASGGVASPTDPIANTQYSEDEIRAIVDEAEAANTYVMAHAYTGRAIARAVRCGVRTIEHGNLVDEAAAKLMHEHGAFVVPTLVTYDALAKHGAEFGMPPESVAKVASVQQKGRESLEIYANAGVKMGFGSDLLGEMHAFQSGEFRIRAEVLGNLEALRSATTVAAEIVNMQGQLGVIAVGAIADLVVLDGNPLEDIGVVADEGARVEYVLQRGTLVKRQAGGR | not soluble |
| MAFGWHSMHGSIIWFLQIAQLSTAISHDQNATAVHFLISNLFFLVSTGALWFELCAIFCDSSSSTSILSTSLLMLNYFSLKFSATGERHLVATNIAHIEAHTSIVGFMISLFTPLKETIITKYEMLVRT | soluble |
| MSLRVKYFGTDGIRGIFGETLTDELAFKVGKALGEIVGEGKVIVGKDTRVSGDSLEAAISAGLTSMGVDVLLCGILPTPAVALLTRITRSFGVVISASHNPPEYNGIKVLKGGYKIPDEMEAEIEKRLENGSFLTRSVVGRTKSFREGRDMYIGAVLEMFRDLDLTGEMVSLDLANGATTTTAREVFEFLGAKVEVFNDSQDGLLINQGCGATHPRFLAEEMKNGKVGFTFDGDGDRVIAVDEERNVVNGDRIIGILAVGLKEEGRLNSDTVVGTVMTNGGLEDFLKEKGIRLLRTKVGDKYVLEKMLESGANLGGERSGHIIILDRSTTGDGLITALELMRVLKRSGRKLSDFAKEIPDYPQITKNVRRTERMSLENENLRKIVEESTSRGYRVVIRPSGTEPVIRITVEGKDREEIEKIVEEISRVLESEGHHHHHH | soluble |
| MNIFYEESGQFKIAAIIQKNDATYQVDTPHGKRTKVKANNVFAEFDGDMAAFLENAQAQAADIDTDLLWEVCGEEEFTAEAIAEEYYGHAPTKTELAATLIALYAAPMYFYKKAKGVFKAAPEETLKQALAAIERKKQQDAQIDAWAEALKRGEMPSEIAADLKTILHAPDKQSLTYKAFTKAADALKTSAYELAKKTGGITSIPQYLQDGFEIKYFPKGTGFPDLALPEMPDLPKADVTAFSIDDESTTEVDDALSLTDLDNGTKRVGIHIAAPSLAVKPGDKMEKNIMERLSTVYFPGGKITMLPENWIAAFSLDAGAHRPAVSIYFDVDGEFNVGAPTCKIEAVNIATNLRIQAIEPHFNAETGLDEAGEMMFAHHQDLIWFYQFATALQKARGKYEPDRAPQYDYSIELDEEGKVSVVRRERGSPIDTLVSEMMILANSTWAQMLHDNDLPGLFRVQPTGKVRMSTKSEPHIGMGVQHYGWFTSPLRRAADYINQKQLISLIDDTAEPLYQNSDAELFAALRDFDAAYTAYADFQRQMEAYWSLVYLQQQGTSELTATILKEDLVRIEGLPLVTRATGIPFDALPKSQALFKITELDAEKQFVSLNYIKAVAPAGTTAGNAV | not soluble |
| MQIGANSLLQEMQSLKGEVTPSFGISPNNIVQQVNNTSGADFGQLLSQAIGNVSGLQSTSSNLATRLDMGDTTVSLSDSVIAREKASVAFEATIQVRNKLVEAYKEIMSMPV | not soluble |
| MGSDKIHHHHHHMTAQTHNDVAVCWNQNANQWTSDVRNGYDVYRDFFTLPAFLQFLPTMADLNVIDFGCGEGSNTRHFAQMGAKVVGIDISNGLIEHARQAERVDPVGITYKIVSYSSDTGFPASSFDAVVSTMALMDGPDLQGAMHEAYRLLRPGGFVAFSVLHPCFITPGWQWQKDENGQTTGLCTSRYFDKSGFTENWKFGNRPKDENVAPFAVPRFPRTIGDYINAVASVGFRISKIEEPQPTEEACKAIPQLRRWRDLGAFLLLVIAERPK | not soluble |
| MLTMRICLRATYTQKEYKWESTVNEQISAASLYDRVARVIPKAEWMGFQDDVEAILELKRKRNAVILAHNYQTPEIFHGVADIVGDSLALARKAMEVEADVIVLAGVHFMAETAKLLNPEKTVLIPDMAAGCSLADSITPEDIALLRKAYPGVPVVTYVNTSAAVKAASDICCTSGNARQVVESLGVPRVLMLPDEYLAKNVAKETSVELIAWRGHCEVHELFTADDIRELRESHPGVIVLAHPECPPEVVDAADFSGSTAVMSDYVGRERPARVVLLTECSMSDNVAVHHPDVEFIRPCNLCPHMKRITLGNIRTALEENRHEVTVDPAIAGAARRAVERMLQIMAGDPLEHHHHHH | not soluble |

From the DeepSol protein solubility set
